Reference: the supplement of paper PMC10899765
Several values for one entry are separate records, joined by “and”; a condition that tells them apart may be missing. Identical values can stand only once.

Columns and labels:
Settings in all cases: 20 nM; 72 h
MCF10A [1] = assay: percent viability (nuclei count relative to siNT); higher = more viable cells
Method: (§1)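 After 72 h, cells were fixed and stained with Hoechst and anti-fibrillarin, and nucleoli per nucleus were counted with CellProfiler. Values are plate-adjusted percent effect for the one-nucleolus and 5+ nucleoli phenotypes, normalised to siNT (0%) and to the positive controls siNOL11 or siKIF11 (100%), as the mean of biological triplicates. Percent viability is the nuclei count relative to siNT.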

MCF10A [2] = assay: 5+ nucleoli phenotype percent effect (relative to siNT 0% and siKIF11 100%); higher = more cells with five or more nucleoli
Method: as §1

MCF10A [3] = assay: one-nucleolus phenotype percent effect (relative to siNT 0% and siNOL11 100%); higher = more cells with one nucleolus (ribosome biogenesis inhibition)
Method: as §1

Row | Sequence | percent viability (MCF10A [1]) | 5+ nucleoli phenotype percent effect (MCF10A [2]) | one-nucleolus phenotype percent effect (MCF10A [3])
1 | UCAGGGUUGGUAGGGGUUGCU [hsa-miR-6823-5p] | 22.1% | -11.9% | 19.8%
2 | CUCUAGAGGGAAGCACUUUCUG [hsa-miR-520c-5p] | 82.7% | 17.5% | -6.38%
3 | CCCAUCACCUUUCCGUCUCCCCU [hsa-miR-6884-3p] | 70.3% | 50.9% | -25.5%
4 | UACAGUAUAGAUGAUGUACU [hsa-miR-144-3p] | 119% | -8.45% | -2.3%
5 | UGAUUGGUACGUCUGUGGGUAG [hsa-miR-509-3p] | 37.8% | -46.5% | 34%
6 | UAAGUGCUUCCAUGCUU [hsa-miR-302e] | 93.6% | 65.3% | -16.8%
7 | CCUAGUAGGUGUCCAGUAAGUGU [hsa-miR-325] | 58% | 25% | -12.1%
8 | ACAUCGCCCCACCUUCCCCAG [hsa-miR-6785-3p] | 102% | 55.5% | -34.4%
9 | AUCAUGAUGGGCUCCUCGGUGU [hsa-miR-433] | 63.2% | -11.3% | -2.79%
10 | CUUAGACUGCCAGACUCCCUGA [hsa-miR-7702] | 163% | 59.3% | -29.9%
11 | CAGUGCAAUAGUAUUGUCAAAGC [hsa-miR-301a-3p] | 126% | 43.8% | -17.2%
12 | AUGUCCAUAUUAUGGGUUAGU [hsa-miR-3912-5p] | 83.8% | 83.1% | -28.3%
13 | AAAUUCAUGUUCAAUCUAAACC [hsa-miR-4760-3p] | 68.6% | 10% | -13.1%
14 | ACUGGCAUUAGUGGGACUUUU [hsa-miR-5588-5p] | 46.1% | 33.4% | -3.93%
15 | ACUGGACUUGGAGUCAGAAGG [hsa-miR-378a-3p] | 45.2% | 22.6% | 2.26%
16 | AAACACCAUUGUCACACUCCAC [hsa-miR-3591-3p] | 27.5% | -27% | 32.5%
17 | AAAAGCUGGGUUGAGAGGA [hsa-miR-320d] | 50.4% and 40.7% | -8.63% and -12.1% | 27% and 27.3%
18 | UGAGUGACAGGGGAAAUGGGGA [hsa-miR-1236-5p] | 36.9% | -4.72% | -0.0652%
19 | AUAUGGGUUUACUAGUUGGU [hsa-miR-3115] | 25% | -8.18% | 27.9%
20 | AAUUGCACGGUAUCCAUCUGUA [hsa-miR-363-3p] | 63.9% | -15.8% | 5.76%

Row | Sequence | percent viability (MCF10A [1]) | 5+ nucleoli phenotype percent effect (MCF10A [2]) | one-nucleolus phenotype percent effect (MCF10A [3])
21 | ACCCGUCCCGUUCGUCCCCGGA [hsa-miR-1247-5p] | 116% | 2.26% | -16.3%
22 | ACACCCUCUUUCCCUACCGCC [hsa-miR-6865-3p] | 86.3% | 40.5% | -26%
23 | AAAGUGCUUCCUUUUAGAGGG [hsa-miR-520b] | 70.9% | 70.5% | -19.2%
24 | AGAGGUUGCCCUUGGUGAAUUC [hsa-miR-377-5p] | 22% | -35.2% | 36.3%
25 | CUAUACAAUCUAUUGCCUUCCC [hsa-let-7f-1-3p] | 39.2% | -25% | -6.49%
26 | GCCUAUCACAUAUCUGCCUGU [hsa-miR-3927-5p] | 73.9% | 67.2% | -27.5%
27 | UAUCUGCUGGGCUUUCUGGUGUU [hsa-miR-4686] | 34.5% | -43.3% | 43.6%
28 | GCGAGGACCCCUCGGGGUCUGAC [hsa-miR-611] | 121% | 45.7% | -31.1%
29 | GUUGGGACAAGAGGACGGUCUU [hsa-miR-3122] | 87.3% | 22.1% | -20.5%
30 | UAGCAAAAACUGCAGUUACUUU [hsa-miR-548p] | 114% | 17.2% | -21.8%
31 | GGGGGAAGAAAAGGUGGGG [hsa-miR-4271] | 72.2% | 20.1% | -5.03%
32 | UUGCUCACUGUUCUUCCCUAG [hsa-miR-1178-3p] | 50.3% | -31.4% | 0.794%
33 | CAGGGAACAGCUGGGUGAGCUGCU [hsa-miR-6750-5p] | 60.6% | 27.2% | -6.66%
34 | AGCCCGCCCCAGCCGAGGUUCU [hsa-miR-4707-3p] | 42.9% | -25.2% | 19.7%
35 | AGCAAGGCGGCAUCUCUCUGAU [hsa-miR-4708-3p] | 43.7% | -21.8% | 16.1%
36 | AGUAUGUUCUUCCAGGACAGAAC [hsa-miR-567] | 56.1% | 34.9% | 8.77%
37 | UGAGACCAGGACUGGAUGCACC [hsa-miR-4786-5p] | 42.2% | -0.448% | -5.75%
38 | ACAGGCGGCUGUAGCAAUGGGGG [hsa-miR-3937] | 33.1% | -33.4% | 31.6%
39 | UGCAUCACAGCCUUUGGCCCUAG [hsa-miR-7112-3p] | 45.8% | 45.4% | -28%
40 | ACCCAGGUUCCCUCUGGCCGCA [hsa-miR-4726-3p] | 23.9% | -34.6% | 51.3%

Row | Sequence | percent viability (MCF10A [1]) | 5+ nucleoli phenotype percent effect (MCF10A [2]) | one-nucleolus phenotype percent effect (MCF10A [3])
41 | UGGGGGCUGGGAUGGGCCAUGGU [hsa-miR-6848-5p] | 22.5% | -4.7% | 7.99%
42 | CCAGGGAGGCUGGUUUGGAGGA [hsa-miR-6754-5p] | 38% | -21.9% | 22.6%
43 | UCUGAAUAGAGUCUGAAGAGU [hsa-miR-4427] | 71.5% | 39.9% | -23.1%
44 | CCAAUAUUGGCUGUGCUGCUCC [hsa-miR-195-3p] | 142% | 27.5% | -16.1%
45 | CAAAAACUGCAAUUACUUUUGC [hsa-miR-548aq-3p] | 115% | 13.8% | -26.6%
46 | AGGCGCACCCGACCACAUGC [hsa-miR-6722-5p] | 22.4% | -18.7% | 26.5%
47 | AGGAGGUGGUACUAGGGGCCAGC [hsa-miR-6851-5p] | 15.2% | -20.3% | 31.8%
48 | AAUAAAGUUCAUGUAUGGCAA [hsa-miR-5590-3p] | 61.8% | -19% | -1.04%
49 | UCUGUAGCCUGGGAGCAAUGGGGU [hsa-miR-3137] | 13.2% | -20.3% | 24%
50 | AUACACAUACACGCAACACACAU [hsa-miR-466] | 38.7% | -1.51% | -17.2%
51 | CCCUGUGCCCGGCCCACUUCUG [hsa-miR-1914-5p] | 90.2% | 1.43% | -13.8%
52 | UGGAUUUUUGGAUCAGGGA [hsa-miR-1290] | 51% | -26.7% | 7%
53 | AUCUGGAGGUAAGAAGCACUUU [hsa-miR-516b-5p] | 61.6% | 48.7% | -1.83%
54 | AUAUAAUACAACCUGCUAAGUG [hsa-miR-374b-5p] | 103% | 35.9% | -13.3%
55 | CAGGAUGUGGUCAAGUGUUGUU [hsa-miR-1265] | 123% | 67.6% | -25.1%
56 | GCAAAGCACACGGCCUGCAGAGA [hsa-miR-330-3p] | 83.2% | 16.5% | -7.99%
57 | UGAGGUAGUAGUUUGUGCUGUU [hsa-let-7i-5p] | 16.5% | 23.9% | -11.8%
58 | GGCUCCUUGGUCUAGGGGUA [hsa-miR-4448] | 45.2% | 20.5% | -9.36%
59 | GACAAUUGUUGAUCUUGGGCCU [hsa-miR-7849-3p] | 74.7% | -19.1% | 8.55%
